{"source": "paper PMC12803839", "target": "pyruvate kinase M2 (human (endogenous in HK-2)) (UniProt P14618)", "assay": "cross-linking; proteins of HK-2 cells treated with vehicle or compound 3k; DSS 1 mM, room temperature, 30 min, quenched with 20 mM Tris; SDS-PAGE and Western blot for PKM2; more monomer and less dimer and tetramer with compound 3k", "data": [{"substance": "pyruvate kinase M2, P14618 1-531 (natural protein; other documents disagree on this pair)", "values": [{"measurement": "stoichiometry N", "result": 2}]}]}
